According to article PMC4320835:

Target: wild-type H3 A/Perth/16/2009 recombinant hemagglutinin (rHA) (influenza A virus, H3 A/Perth/16/2009)
Assay: cross-linking

Q: How did the percent cross-linked after 1 month at 25°C turn out when “wild-type H3 A/Perth/16/2009 recombinant hemagglutinin (rHA) (natural protein)” was run?
A: 72%
